Measured values as given in IntAct's records for PubMed 20018686.

B1: Serine/threonine-protein kinase BIK1 (Arabidopsis thaliana (Mouse-ear cress)), O48814 (parent)
chain: MGSCFSSRVKADIFHNGKSSDLYGLSLSSRKSSSTVAAAQKTEGEILSSTPVKSFTFNELKLATRNFRPDSVIGEGGFGCVFKGWLDESTLTPTKPGTGLVIAVKKLNQEGFQGHREWLTEINYLGQLSHPNLVKLIGYCLEDEHRLLVYEFMQKGSLENHLFRRGAYFKPLPWFLRVNVALDAAKGLAFLHSDPVKVIYRDIKASNILLDADYNAKLSDFGLARDGPMGDLSYVSTRVMGTYGYAAPEYMSSGHLNARSDVYSFGVLLLEILSGKRALDHNRPAKEENLVDWARPYLTSKRKVLLIVDNRLDTQYLPEEAVRMASVAVQCLSFEPKSRPTMDQVVRALQQLQDNLGKPSQTNPVKDTKKLGFKTGTTKSSEKRFTQKPFGRHLV
B2: Serine/threonine-protein kinase BIK1 (Arabidopsis thaliana (Mouse-ear cress)), O48814 (parent)
chain: B1 chain
partner: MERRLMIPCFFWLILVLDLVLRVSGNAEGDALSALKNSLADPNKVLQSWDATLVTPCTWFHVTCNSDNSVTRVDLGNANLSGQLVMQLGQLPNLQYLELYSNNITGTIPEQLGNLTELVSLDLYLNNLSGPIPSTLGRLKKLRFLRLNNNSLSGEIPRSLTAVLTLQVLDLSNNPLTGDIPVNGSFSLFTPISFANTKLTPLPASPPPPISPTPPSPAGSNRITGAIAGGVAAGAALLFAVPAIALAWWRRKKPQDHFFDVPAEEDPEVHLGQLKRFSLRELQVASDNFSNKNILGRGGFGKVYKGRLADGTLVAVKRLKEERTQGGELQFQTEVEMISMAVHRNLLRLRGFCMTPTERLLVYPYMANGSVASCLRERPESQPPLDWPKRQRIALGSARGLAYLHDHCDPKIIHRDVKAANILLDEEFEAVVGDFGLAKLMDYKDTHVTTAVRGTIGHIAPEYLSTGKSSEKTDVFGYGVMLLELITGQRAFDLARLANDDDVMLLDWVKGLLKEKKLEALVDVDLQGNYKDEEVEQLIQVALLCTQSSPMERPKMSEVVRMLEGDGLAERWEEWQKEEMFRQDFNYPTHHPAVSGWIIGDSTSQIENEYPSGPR

Variants of: B1
Settings: with fls2_arath FLS2, Q9FL28
Sequence of fls2_arath FLS2, Q9FL28 (Q9FL28 whole entry): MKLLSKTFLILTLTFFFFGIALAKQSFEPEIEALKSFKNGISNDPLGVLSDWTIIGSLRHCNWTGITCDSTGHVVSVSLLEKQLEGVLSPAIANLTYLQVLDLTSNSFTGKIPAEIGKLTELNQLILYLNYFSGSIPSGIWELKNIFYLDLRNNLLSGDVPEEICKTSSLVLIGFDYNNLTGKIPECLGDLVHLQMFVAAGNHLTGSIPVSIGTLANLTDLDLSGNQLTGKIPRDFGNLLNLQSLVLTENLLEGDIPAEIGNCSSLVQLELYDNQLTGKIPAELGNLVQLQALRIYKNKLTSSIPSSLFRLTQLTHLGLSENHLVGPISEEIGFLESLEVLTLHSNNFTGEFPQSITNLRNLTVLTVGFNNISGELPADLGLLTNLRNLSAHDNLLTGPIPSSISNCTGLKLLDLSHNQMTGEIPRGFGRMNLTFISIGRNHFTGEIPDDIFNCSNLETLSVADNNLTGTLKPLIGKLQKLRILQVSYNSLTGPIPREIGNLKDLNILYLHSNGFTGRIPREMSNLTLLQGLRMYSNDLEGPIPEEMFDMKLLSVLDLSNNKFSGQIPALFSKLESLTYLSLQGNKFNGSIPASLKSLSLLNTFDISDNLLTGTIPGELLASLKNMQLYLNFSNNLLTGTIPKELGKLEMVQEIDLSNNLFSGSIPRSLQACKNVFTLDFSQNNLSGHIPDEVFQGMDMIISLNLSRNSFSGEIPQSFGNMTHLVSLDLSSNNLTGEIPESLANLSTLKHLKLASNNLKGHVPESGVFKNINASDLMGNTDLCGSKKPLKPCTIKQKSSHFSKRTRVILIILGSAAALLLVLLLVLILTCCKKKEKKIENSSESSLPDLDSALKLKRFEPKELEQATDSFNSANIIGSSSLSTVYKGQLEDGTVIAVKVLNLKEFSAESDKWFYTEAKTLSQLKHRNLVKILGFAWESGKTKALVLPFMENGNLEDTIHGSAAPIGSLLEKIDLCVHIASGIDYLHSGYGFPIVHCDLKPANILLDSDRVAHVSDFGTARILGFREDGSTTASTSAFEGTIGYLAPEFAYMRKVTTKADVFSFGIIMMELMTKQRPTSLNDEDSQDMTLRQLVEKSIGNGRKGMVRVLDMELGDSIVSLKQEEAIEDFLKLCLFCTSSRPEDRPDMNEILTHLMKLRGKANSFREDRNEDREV

Row | effect of a mutation on the interaction | Variant
1 | disrupting interaction | T237A

Variants of: B2
Settings: with bak1_arath BAK1, Q94F62

Row | effect of a mutation on the interaction | Variant
2 | disrupting interaction | T237A
